Assay [1] concerns the target T1, human LILRB2 expressed on cells (293T-LILRB2, CHO-K1-LILRB2) (human, UniProt Q8N423 22-597).
T1 construct: whole, on cells; the cell line is named under assay; also called HEK293T-LILRB2
As to the kind of experiment: flow cytometry on 293T-LILRB2 cells, serial dilution, APC anti-human IgG; fit table under the graph. An excerpt: The cells were washed and then subject to flow cytometry to measure levels of fluorescent signals.
(A flow cytometer gives signals particle by particle.)

For assay [2], the target named is T1, human LILRB2 expressed on cells …. As to the kind of experiment: flow cytometry, blockade of His-tagged HLA-G tetramer binding to 293T-LILRB2 cells; fit table under the graph. As to the method:
Serial diluted humanized LILRB2 antibodies were then added to the mixture and incubated at room temperature for another 45 minutes. The binding of HLA-G/LILRB2 was detected afterwards using a secondary PE-labeled anti-His tag antibody via flow cytometry.

In assay [3] the target is LILRB2 antigen of the ELISA of Table 5 (format not specified) (UniProt Q8N423 22-460, limits assumed). As to the kind of experiment: ELISA, antibody titration.
Assay [4] has as its target T2, human LILRB1 expressed on 293T cells (human, UniProt Q8NHL6 24-650).
T2 construct: whole, on cells
As to the kind of experiment: cell ELISA on fixed 293T transfectants, OD490. The protocol:
(§1) The cells were then immobilized with glutaraldehyde in the presence of 5% defatted milk at room temperature for 2 hours. An anti-LILRB2 antibody (2 μg/ml) was added to each well and incubated at room temperature for 2 hours. An HRP-labelled goat anti-mouse secondary antibody was then added into each well and incubated at room temperature for one hour. An HRP substrate, o-phenylenediamine dihydrochloride (OPD) was then added to each well. The plate was incubated at room temperature for 15 min to allow color development and OD₄₉₀ values were determined.
In general terms: In an ELISA, binding on a coated surface is turned into a signal by an enzyme label.

In assay [5] the target is T3, human LILRB3 expressed on 293T cells (human, UniProt O75022 24-631).
T3 construct: whole, on cells
As to the kind of experiment: cell ELISA on fixed 293T transfectants, OD490. The protocol: as §1

The next assay deals with T4, LILRB2-Fc fusion protein (human, UniProt Q8N423 22-460, limits assumed).
T4 construct: not shown: Fc
As to the kind of experiment: ELISA, blockade of LILRB2-Fc binding to coated His-ANGPTL2. The protocol: His-tagged ANGPTL2 protein (1 μg/ml) was placed in a 96-well plate ([…]) and incubated at 4° C. overnight. Afterwards, LILRB2-Fc fusion protein at 0.25 mg/ml was incubated with the anti-LILRB2 antibody at various concentrations at room temperature for one hour and then added into the His-ANGPTL2 coated plate. The plate was placed in a shaker at 500 rpm for 2 hours at room temperature. HRP-labelled goat anti-human Fc antibody (1:10,000 dilution) was added to the plate (100 μl/well). After incubation at room temperature for 1 hour, TMB was added for color development.
Clones 11B12, 9B6, 9H6, and 14F1 were selected for dose-dependent blockade assays. A mouse IgG (mIgG) antibody was used as a negative control. […] The IC₅₀ values are around 1 nM. […] (ix) Exemplary Anti-LILBR2 Antibodies Enhanced TNFα Expression and Suppressed IL-10 Expression in LPS-Stimulated PBMCs

For another assay, the target named is T5, LILRB3-His.
T5 construct: also called His-tagged LILRB3; recombinant LILRB3 protein
As to the kind of experiment: ELISA on recombinant His-tagged protein, OD450.

Assay [6] has as its target T6, His-tagged human LILRB2 polypeptide (human, UniProt Q8N423 22-460).
T6 construct: SPR analyte; also called His-tagged human LILBR2 polypeptide; not shown: His tag
As to the kind of experiment: SPR, antibody on CM5 chip, His-LILRB2 analyte, 1:1 model. As to the method: Surface plasmon resonance (SPR) was used to examine binding activities of exemplary anti-LILBR2 antibodies disclosed herein. Briefly, the anti-LILBR2 antibody was diluted in a coating buffer to a concentration of 30 μg/ml, loaded onto CM5 chips at 10 μl/min to allow coating of the antibody on the surface of the CM5 chip. […] Binding affinity was measured based on the 1:1 binding model.
(SPR reads the build-up and loss of mass on a sensor chip optically.)

Assay [7] deals with T1, human LILRB2 expressed on cells …. As to the kind of experiment: flow cytometry, blockade of PE-HLA-G tetramer binding to 293T-huLILRB2 cells. The protocol: Pre-experimentation was performed to determine parameters for this assay. […] The cells were washed twice and then analysed by flow cytometry. […] FIG. 3C.
A mouse IgG (mIgG) antibody was used as a negative control.

The target is the same in assay [8]. As to the kind of experiment: flow cytometry, blockade of PE-HLA-A2 tetramer binding to CHO-K1-huLILRB2 cells. As to the method:
Pre-experimentation was performed to determine parameters for this assay. PE-labelled HLA-A2 tetramer at the concentration of 0.25 μg/ml and an anti-LILRB2 antibody at the concentration of 2.5 μg/ml were incubated with CHO-K1-huLILRB2 cells for 10 minutes. The cells were washed twice and then analysed by flow cytometry. […] FIG. 3A.
Clones 11B12, 9B6, and 9H6 were selected for dose-dependent blockade assays against HLA-A2 from binding to CHO-K1-huLILRB2 cells. A mouse IgG (mIgG) antibody was used as a negative control.

Assay [9] has as its target T2, human LILRB1 expressed on 293T cells. As to the kind of experiment: cell ELISA on fixed 293T transfectants, antibody 2 µg/ml, OD490. The protocol:
as §1

The target is the same in assay [10]. As to the kind of experiment: cell ELISA, 293T-LILRB1 cells, antibody 2 ug/ml. The protocol: as §1
The target of assay [11] is T1, human LILRB2 expressed on cells …. As to the kind of experiment: cell ELISA, 293T-LILRB2 cells, antibody 2 ug/ml. As to the method:
as §1

Assay [12] addresses T3, human LILRB3 expressed on 293T cells. As to the kind of experiment: cell ELISA, 293T-LILRB3 cells, antibody 2 ug/ml. The protocol:
as §1

The target in assay [13] is T2, human LILRB1 expressed on 293T cells. As to the kind of experiment: flow cytometry on 293T transfectants, MFI. The gist of the method:
(§2)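 Cells fixed with glutaraldehyde in 5% defatted milk, RT 2 h, then stained with anti-LILRB2 antibody (5 μg/ml, RT 1 h) and Alexa Fluor goat anti-mouse secondary (1:2,000, RT 30′). After two PBS washes, mean fluorescence intensity was measured.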

The target of assay [14] is T3, human LILRB3 expressed on 293T cells. As to the kind of experiment: flow cytometry on 293T transfectants, MFI. The method in brief: as §2
For a further assay, the target named is T7, LILRB1-His.
T7 construct: also called His-tagged LILRB1; recombinant LILRB1 protein
As to the kind of experiment: ELISA on recombinant His-tagged protein, OD450.

T6 sequence (Q8N423 22-460 limits assumed): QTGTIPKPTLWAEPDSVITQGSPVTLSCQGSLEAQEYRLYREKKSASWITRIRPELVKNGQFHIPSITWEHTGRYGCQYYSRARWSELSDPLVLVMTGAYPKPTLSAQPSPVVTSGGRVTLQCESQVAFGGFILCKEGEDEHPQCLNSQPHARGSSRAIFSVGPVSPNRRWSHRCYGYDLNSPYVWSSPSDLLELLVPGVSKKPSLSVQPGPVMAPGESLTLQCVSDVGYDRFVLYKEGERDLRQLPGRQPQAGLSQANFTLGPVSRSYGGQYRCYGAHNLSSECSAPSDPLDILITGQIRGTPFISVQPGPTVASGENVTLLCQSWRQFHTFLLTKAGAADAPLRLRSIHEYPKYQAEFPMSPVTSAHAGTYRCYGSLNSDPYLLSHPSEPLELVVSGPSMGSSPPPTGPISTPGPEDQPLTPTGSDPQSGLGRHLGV
T4 sequence (Q8N423 22-460 limits assumed): as above
LILRB2 antigen of the ELISA of Table 5 (format not specified), sequence (Q8N423 22-460 limits assumed): as above
T2 sequence (Q8NHL6 24-650): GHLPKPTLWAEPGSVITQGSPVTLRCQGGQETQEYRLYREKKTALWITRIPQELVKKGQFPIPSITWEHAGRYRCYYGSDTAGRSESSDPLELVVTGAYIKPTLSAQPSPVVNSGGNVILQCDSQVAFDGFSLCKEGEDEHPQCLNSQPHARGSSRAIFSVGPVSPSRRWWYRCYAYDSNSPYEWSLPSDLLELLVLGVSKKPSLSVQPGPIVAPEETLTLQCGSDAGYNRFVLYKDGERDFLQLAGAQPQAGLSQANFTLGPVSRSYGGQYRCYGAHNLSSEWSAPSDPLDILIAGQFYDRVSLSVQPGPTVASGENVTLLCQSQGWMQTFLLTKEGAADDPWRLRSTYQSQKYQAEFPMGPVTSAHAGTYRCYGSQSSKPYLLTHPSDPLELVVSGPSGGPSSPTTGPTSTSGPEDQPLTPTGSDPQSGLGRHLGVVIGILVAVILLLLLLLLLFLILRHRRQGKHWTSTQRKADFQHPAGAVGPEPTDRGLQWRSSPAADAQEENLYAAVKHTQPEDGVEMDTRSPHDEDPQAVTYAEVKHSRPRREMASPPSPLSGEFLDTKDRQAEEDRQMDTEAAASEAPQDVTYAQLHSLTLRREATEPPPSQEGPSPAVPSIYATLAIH
T1 sequence (Q8N423 22-597): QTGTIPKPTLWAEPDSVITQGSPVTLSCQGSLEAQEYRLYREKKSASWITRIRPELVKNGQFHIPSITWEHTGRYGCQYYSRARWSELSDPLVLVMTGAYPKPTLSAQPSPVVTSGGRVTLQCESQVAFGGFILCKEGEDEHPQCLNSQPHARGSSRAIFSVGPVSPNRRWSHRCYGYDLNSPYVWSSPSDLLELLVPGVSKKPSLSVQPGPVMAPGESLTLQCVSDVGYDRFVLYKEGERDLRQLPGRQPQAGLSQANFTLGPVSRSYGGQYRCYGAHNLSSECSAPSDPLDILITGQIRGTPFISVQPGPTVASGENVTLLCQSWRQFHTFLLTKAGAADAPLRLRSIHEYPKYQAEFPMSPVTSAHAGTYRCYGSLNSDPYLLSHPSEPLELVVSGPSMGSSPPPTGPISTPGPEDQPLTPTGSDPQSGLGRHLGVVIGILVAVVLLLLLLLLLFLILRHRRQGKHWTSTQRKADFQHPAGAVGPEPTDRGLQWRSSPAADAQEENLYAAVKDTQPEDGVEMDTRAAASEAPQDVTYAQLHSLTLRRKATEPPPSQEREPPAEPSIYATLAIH
T7 sequence (chain, as listed by the source limits assumed): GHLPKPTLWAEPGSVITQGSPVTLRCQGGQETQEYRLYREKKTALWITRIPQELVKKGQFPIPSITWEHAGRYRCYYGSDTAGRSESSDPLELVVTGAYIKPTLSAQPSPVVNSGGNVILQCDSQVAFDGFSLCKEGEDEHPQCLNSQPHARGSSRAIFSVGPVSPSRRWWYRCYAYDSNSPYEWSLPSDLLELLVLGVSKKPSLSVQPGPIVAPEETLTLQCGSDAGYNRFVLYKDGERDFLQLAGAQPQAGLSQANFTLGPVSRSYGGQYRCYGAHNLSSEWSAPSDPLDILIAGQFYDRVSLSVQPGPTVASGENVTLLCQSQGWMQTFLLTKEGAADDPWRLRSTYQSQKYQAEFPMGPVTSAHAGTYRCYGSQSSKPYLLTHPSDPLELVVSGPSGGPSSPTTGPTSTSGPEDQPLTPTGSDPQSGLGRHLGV

B1: Antibody h#12a (antibody, V domains shown)
VH: EVQLVESGGGLVQPGGSLRLSCAASGFTFSNFGMHWVRQAPGKGLEWVAYISSGSGTIYYSDTVRGRFTISRDDSKNTLYLQMNSLRAEDTAVYYCARSDYDGDWFFDVWGQGTLVTVSS
VL: DIQMTQSPSSLSASVGDRVTITCKASQDVTTAVAWYQQKPGKAPKLLIYSASFRYTGVPSRFSGSGSGTDFTLTISSLQPEDFATYYCQQHFTTPLTFGQGTKVEIK
notes: Humanized variant of 9B6
As usually defined, the Kd is a measure of binding affinity in units of concentration. A lower Kd goes with a tighter complex. For orientation: IC50 means the concentration needed to halve the response being measured. A higher IC50 goes with weaker potency in that assay. In assay [1], B1 came in with a Kd of 0.242 nM. The molecule further displayed an IC50 in [2] of 0.318 nM.

B2: Antibody 11B12 (antibody, V domains shown)
VH: DVQLQESGPGLVKPSQSLSLTCSVTGYSITSGYYWNWIRQFPGNKLEWMGYISYDGNNNYNPSLKNRISITRDTSKNQFFLKLNSVTTEDTATYYCAREESTMITTAWFAYWGQGTLVTVSA
VL: DIQMTQSPASLSVSVGETVTITCRASENIYSNLAWYQQKQGKSPQLLVYGATNLADGVPSRFSGSGSGTQYSLKINSLQSEDFGSYFCQHFWDTPYTFGGGTKLEIK
notes: Mouse hybridoma mAb purified from ascites
Usually koff stands for a measure of how fast the partners let go of each other. A lower koff goes with a long-lived complex. A word on the kon: it is the second-order rate constant of association. For B2, the Kd in assay [3] stood at 3.2 nM; in assay [6] it was 0.353 nM. Further, the values for the binding result (in assay [4]; in assay [5]; with LILRB3-His) were “no binding (tested: 2 µg/ml)”, “no binding (tested: 2 µg/ml)” and “no binding”, respectively. Further, the IC50 with LILRB2-Fc fusion protein was 1 nM; in assay [7] it was 0.857 nM; in assay [8] it was 0.475 nM. In assay [6], this molecule came in with a koff of 0.00032 s⁻¹. Also, the kon in assay [6] is 905000 M⁻¹ s⁻¹.

B3: Antibody 13D12 (antibody, V domains shown)
VH: EIQLQQSGPELVKPGASVKVSCKASGYAFTSHNIYWVKQSHGKSLEWIGYIDPYNGGSTYNQKFKDKATLTVDKSSSTAYMHLKSLTSEDSAVYYCARGDYRDFWGQGTTLTVSS
VL: DIQMTQTTSSLSASLGDRVTIRCSASQAINNYLNWYQQKPDGTVKLLIYYTSSLHSGVPSRFSGSGSGADYSLTISNLEPEDIATYYCQQYSHLPWTFGGGTTLEIK
notes: as for B2
In [3], B3 had a dissociation constant (Kd) of 2.48 nM. Moreover, the binding result in assay [5] was “no binding (tested: 2 µg/ml)”; in assay [9] it was “binds”.

B4: Antibody 9H6 (antibody, V domains shown)
VH: EVQLQQSGAELVRPGALVKLSCKASGFNVKDYYMHWVKQRPEQGLEWIGWIDPKNGNGIYDPKFQGKASITADTSSNTAYLQLSSLTSEDTSVYYCARGDYFGSSYLFAYWGQGTLVTVSA
VL: DIVMTQSHKFMSTSVGDRVSITCKASQDVSTAVAWYQQKPGQSPKLLIYSASYRYTGVPDRFTGSGSGTDFTFTISSVQAEDLAVYYCQQHYSTPWTFGGGAKLEIK
notes: as for B2
Turning to B4, the equilibrium dissociation constant (Kd) in [3] came out at 1.04 nM; in assay [6], 0.0257 nM. Moreover, the OD490 was determined as 0.177 OD490 in [10], 1.86 OD490 in assay [11] and 0.139 OD490 in assay [12]. Further, the binding result in assay [13] is reported as “no binding (tested: 5 µg/ml)”; in assay [14], “no binding (tested: 5 µg/ml)”; with LILRB1-His, “no binding”; with LILRB3-His it was “no binding”. The IC50 worked out at 0.945 nM with LILRB2-Fc fusion protein, 3.12 nM in assay [7] and 4.97 nM in assay [8]. Further, the koff in assay [6] came to 4.72e-06 s⁻¹. For the same molecule, the kon in assay [6] was determined as 183000 M⁻¹ s⁻¹.

B5: Antibody 14F1 (antibody, V domains shown)
VH: QVQLKESGPGLVAPSQSLSITCTVSGFSLTTYGVHWVRQPPGKGLEWLGVIWTGGSTNYNSALMSRLSIIKDNSKSQVFLKMNSLQTDDTAIYYCARGGYGHTMDYWGQGTSVTVSS
VL: DIVMTQSHKFMSTSVGDRVSITCKASQDVSIAVAWYQQKPGQFPKLLIYSASYRYTGVPDRFTGGGSGTDFTFTISSVQAEDLAVYYCQQHYSTPFTFGSGTKLEIK
notes: as for B2
In turn, B5 gave a Kd in [3] of 1.24 nM. Moreover, the OD490 is 0.172 OD490 in assay [10], 1.21 OD490 in assay [11] and 0.172 OD490 in assay [12]. Further, the binding result in assay [13] is “no binding (tested: 5 µg/ml)”; in assay [14], “no binding (tested: 5 µg/ml)”; in the assay with LILRB1-His, “no binding”; with LILRB3-His, “no binding”. The IC50 with LILRB2-Fc fusion protein came to 0.942 nM; in assay [7], 0.82 nM.

B6: Antibody 9B6 (antibody, V domains shown)
VH: DVQLVESGGGLVQPGWSRILSCAASGFTFSNFGMHWVRQAPEKGLEWVAYISSGSGTIYYSDTVRGRFTISRDNPKNTLFLLMTSLRSEDTAMYYCTRSDYDGDWFFDVWGAGTTVTVSS
VL: DIVMTQSHRFLSTSVGDRVTITCKASQDVTTAVAWCQQKPGQSPKLLIYSASFRYTGVPDRFTGSGSGTDFTFTINNVQAEDLALYYCQQHFTTPLTFGAGTKLELK
notes: as for B2
In the case of B6, the results for the dissociation constant (Kd) in assay [3] and in [6] were 0.943 nM and 1.07 nM, respectively. The values for the OD490 in [10], in assay [11] and in assay [12] were 0.121 OD490, 1.43 OD490 and 0.126 OD490, respectively. The binding result in assay [13] was “no binding (tested: 5 µg/ml)”; in assay [14], “no binding (tested: 5 µg/ml)”; in the assay with LILRB1-His, “no binding”; in the assay with LILRB3-His it was “no binding”. The figures for the IC50 (with LILRB2-Fc fusion protein; in [7]; in assay [8]) were 1.01 nM, 0.618 nM and 0.34 nM, respectively. For the same molecule, in assay [6], the koff amounted to 0.000864 s⁻¹. Besides, in assay [6], the on-rate constant (kon) is 809000 M⁻¹ s⁻¹.

For the origin of these results see patent US20240109962A1 (SPARX BIOSCIENCE, published 2024).
